Experimental data taken from US20110318339A1.
Values belong to the substance of their own block, whether it stands above or below them.

Key:
[1] = target: rHuman ErbB2/Fc Chimera, CF (Cat# 1129-ER) (human) (UniProt P04626); assay: Multispot ECL; Fab […]
[2] = target: rHuman HGF R/c-MET/Fc Chimera, CF (Cat# 358-MT/CF) (human) (UniProt P08581); assay: Multispot ECL; Fab […]
[3] = target: rHuman IGF-1 sR, (IGF-1 sR), CF (Cat# 391-GR) (human) (UniProt P08069); assay: Multispot ECL; Fab […]
[4] = target: rHuman ErbB2/Fc Chimera, CF (Cat# 1129-ER) (human) (UniProt P04626); assay: Multispot ECL; Fab 0.096 µM
[5] = target: rHuman HGF R/c-MET/Fc Chimera, CF (Cat# 358-MT/CF) (human) (UniProt P08581); assay: Multispot ECL; Fab 0.096 µM
[6] = target: rHuman IGF-1 sR, (IGF-1 sR), CF (Cat# 391-GR) (human) (UniProt P08069); assay: Multispot ECL; Fab 0.096 µM
[7] = target: rHuman ErbB2/Fc Chimera, CF (Cat# 1129-ER) (human) (UniProt P04626); assay: Multispot ECL; Fab 0.0192 µM
[8] = target: rHuman HGF R/c-MET/Fc Chimera, CF (Cat# 358-MT/CF) (human) (UniProt P08581); assay: Multispot ECL; Fab 0.0192 µM
[9] = target: rHuman IGF-1 sR, (IGF-1 sR), CF (Cat# 391-GR) (human) (UniProt P08069); assay: Multispot ECL; Fab 0.0192 µM
[10] = target: rHuman ErbB2/Fc Chimera, CF (Cat# 1129-ER) (human) (UniProt P04626); assay: Multispot ECL; Fab 1.19 µM
[11] = target: rHuman HGF R/c-MET/Fc Chimera, CF (Cat# 358-MT/CF) (human) (UniProt P08581); assay: Multispot ECL; Fab 1.19 µM
[12] = target: rHuman IGF-1 sR, (IGF-1 sR), CF (Cat# 391-GR) (human) (UniProt P08069); assay: Multispot ECL; Fab 1.19 µM
[13] = target: rHuman ErbB2/Fc Chimera, CF (Cat# 1129-ER) (human) (UniProt P04626); assay: Multispot ECL; Fab 0.2975 µM
[14] = target: rHuman HGF R/c-MET/Fc Chimera, CF (Cat# 358-MT/CF) (human) (UniProt P08581); assay: Multispot ECL; Fab 0.2975 µM
[15] = target: rHuman IGF-1 sR, (IGF-1 sR), CF (Cat# 391-GR) (human) (UniProt P08069); assay: Multispot ECL; Fab 0.2975 µM
[16] = target: rHuman ErbB2/Fc Chimera, CF (Cat# 1129-ER) (human) (UniProt P04626); assay: Multispot ECL; Fab 0.01859 µM
[17] = target: rHuman HGF R/c-MET/Fc Chimera, CF (Cat# 358-MT/CF) (human) (UniProt P08581); assay: Multispot ECL; Fab 0.01859 µM
[18] = target: rHuman IGF-1 sR, (IGF-1 sR), CF (Cat# 391-GR) (human) (UniProt P08069); assay: Multispot ECL; Fab 0.01859 µM
[19] = target: rHuman ErbB2/Fc Chimera, CF (Cat# 1129-ER) (human) (UniProt P04626); assay: Multispot ECL; Fab 0.07438 µM
[20] = target: rHuman HGF R/c-MET/Fc Chimera, CF (Cat# 358-MT/CF) (human) (UniProt P08581); assay: Multispot ECL; Fab 0.07438 µM
[21] = target: rHuman IGF-1 sR, (IGF-1 sR), CF (Cat# 391-GR) (human) (UniProt P08069); assay: Multispot ECL; Fab 0.07438 µM
[22] = target: rHuman EGF R/Fc Chimera, CF (Cat# 344-ER) (human) (UniProt P00533); assay: Multispot ECL; Fab […]
[23] = target: rHuman Erythropoietin R/Fc Chimera, CF (Cat# 963-ER) (human) (UniProt P19235); assay: Multispot ECL; Fab […]
[24] = target: rHuman Notch-1/Fc Chimera, CF (Cat# 3647-TK) (human) (UniProt P46531); assay: Multispot ECL; Fab […]
[25] = target: rHuman P-Cadherin/Fc Chimera, CF (Cat# 861-PC) (human) (UniProt P22223); assay: Multispot ECL; Fab […]
[26] = target: rHuman EGF R/Fc Chimera, CF (Cat# 344-ER) (human) (UniProt P00533); assay: Multispot ECL; Fab 0.51 µM
[27] = target: rHuman Erythropoietin R/Fc Chimera, CF (Cat# 963-ER) (human) (UniProt P19235); assay: Multispot ECL; Fab 0.51 µM
[28] = target: rHuman IGF-1 sR, (IGF-1 sR), CF (Cat# 391-GR) (human) (UniProt P08069); assay: Multispot ECL; Fab 0.51 µM
[29] = target: rHuman Notch-1/Fc Chimera, CF (Cat# 3647-TK) (human) (UniProt P46531); assay: Multispot ECL; Fab 0.51 µM
[30] = target: rHuman P-Cadherin/Fc Chimera, CF (Cat# 861-PC) (human) (UniProt P22223); assay: Multispot ECL; Fab 0.51 µM
[31] = target: rHuman EGF R/Fc Chimera, CF (Cat# 344-ER) (human) (UniProt P00533); assay: Multispot ECL; Fab 0.1275 µM
[32] = target: rHuman Erythropoietin R/Fc Chimera, CF (Cat# 963-ER) (human) (UniProt P19235); assay: Multispot ECL; Fab 0.1275 µM
[33] = target: rHuman IGF-1 sR, (IGF-1 sR), CF (Cat# 391-GR) (human) (UniProt P08069); assay: Multispot ECL; Fab 0.1275 µM
[34] = target: rHuman Notch-1/Fc Chimera, CF (Cat# 3647-TK) (human) (UniProt P46531); assay: Multispot ECL; Fab 0.1275 µM
[35] = target: rHuman P-Cadherin/Fc Chimera, CF (Cat# 861-PC) (human) (UniProt P22223); assay: Multispot ECL; Fab 0.1275 µM
[36] = target: rHuman EGF R/Fc Chimera, CF (Cat# 344-ER) (human) (UniProt P00533); assay: Multispot ECL; Fab 0.03188 µM
[37] = target: rHuman Erythropoietin R/Fc Chimera, CF (Cat# 963-ER) (human) (UniProt P19235); assay: Multispot ECL; Fab 0.03188 µM
[38] = target: rHuman IGF-1 sR, (IGF-1 sR), CF (Cat# 391-GR) (human) (UniProt P08069); assay: Multispot ECL; Fab 0.03188 µM
[39] = target: rHuman Notch-1/Fc Chimera, CF (Cat# 3647-TK) (human) (UniProt P46531); assay: Multispot ECL; Fab 0.03188 µM
[40] = target: rHuman P-Cadherin/Fc Chimera, CF (Cat# 861-PC) (human) (UniProt P22223); assay: Multispot ECL; Fab 0.03188 µM

rHuman Erythropoietin R/Fc Chimera, CF (Cat# 963-ER) (human), sequence (P19235 25-250, change not shown): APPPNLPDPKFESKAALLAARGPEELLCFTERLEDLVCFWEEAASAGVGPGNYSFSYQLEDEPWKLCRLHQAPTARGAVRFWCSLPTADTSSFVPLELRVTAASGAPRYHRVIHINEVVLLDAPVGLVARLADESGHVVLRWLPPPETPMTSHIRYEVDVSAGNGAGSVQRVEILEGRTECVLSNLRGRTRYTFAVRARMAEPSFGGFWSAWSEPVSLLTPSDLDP

- ECL signal [1]: 11300
- ECL signal [2]: 8000
- ECL signal [3]: 8930
- ECL signal [4]: 3360
- ECL signal [5]: 2330
- ECL signal [6]: 2450
- ECL signal [7]: 2310
- ECL signal [8]: 1580
- ECL signal [9]: 1830
Substance: Fab VH1-46_IGHD6-13*01_IGHJ4*01 & A27_IGKJ1*01

- ECL signal [10]: 38400
- ECL signal [11]: 45500
- ECL signal [12]: 35200
- ECL signal [13]: 15100
- ECL signal [14]: 17400
- ECL signal [15]: 17400
- ECL signal [16]: 5530
- ECL signal [17]: 4570
- ECL signal [18]: 3780
- ECL signal [19]: 7550
- ECL signal [20]: 6610
- ECL signal [21]: 5800
Substance: Fab VH1-46_IGHD6-13*01_IGHJ4*01 & L2_IGKJ1*01

- ECL signal [22]: 530
- ECL signal [23]: 566
- ECL signal [3]: 564
- ECL signal [24]: 654
- ECL signal [25]: 502
- ECL signal [26]: 2360
- ECL signal [27]: 2620
- ECL signal [28]: 2240
- ECL signal [29]: 2770
- ECL signal [30]: 2390
- ECL signal [31]: 1060
- ECL signal [32]: 1070
- ECL signal [33]: 1040
- ECL signal [34]: 1500
- ECL signal [35]: 957
- ECL signal [36]: 694
- ECL signal [37]: 789
- ECL signal [38]: 765
- ECL signal [39]: 849
- ECL signal [40]: 775
Substance: Fab VH4-34_IGHD7-27*01_IGHJ4*01 & L5_IGKJ1*01
